{"source": "paper PMC5786281", "about": "(Oncogene, 2017)", "binders": {"B1": {"name": "EED (endogenous) (natural protein)", "chain": "not shown"}}, "target": "EZH2 (endogenous) (human (endogenous in MDA-MB-231, …, UniProt Q15910 1-746))", "sequence (Q15910 whole entry)": "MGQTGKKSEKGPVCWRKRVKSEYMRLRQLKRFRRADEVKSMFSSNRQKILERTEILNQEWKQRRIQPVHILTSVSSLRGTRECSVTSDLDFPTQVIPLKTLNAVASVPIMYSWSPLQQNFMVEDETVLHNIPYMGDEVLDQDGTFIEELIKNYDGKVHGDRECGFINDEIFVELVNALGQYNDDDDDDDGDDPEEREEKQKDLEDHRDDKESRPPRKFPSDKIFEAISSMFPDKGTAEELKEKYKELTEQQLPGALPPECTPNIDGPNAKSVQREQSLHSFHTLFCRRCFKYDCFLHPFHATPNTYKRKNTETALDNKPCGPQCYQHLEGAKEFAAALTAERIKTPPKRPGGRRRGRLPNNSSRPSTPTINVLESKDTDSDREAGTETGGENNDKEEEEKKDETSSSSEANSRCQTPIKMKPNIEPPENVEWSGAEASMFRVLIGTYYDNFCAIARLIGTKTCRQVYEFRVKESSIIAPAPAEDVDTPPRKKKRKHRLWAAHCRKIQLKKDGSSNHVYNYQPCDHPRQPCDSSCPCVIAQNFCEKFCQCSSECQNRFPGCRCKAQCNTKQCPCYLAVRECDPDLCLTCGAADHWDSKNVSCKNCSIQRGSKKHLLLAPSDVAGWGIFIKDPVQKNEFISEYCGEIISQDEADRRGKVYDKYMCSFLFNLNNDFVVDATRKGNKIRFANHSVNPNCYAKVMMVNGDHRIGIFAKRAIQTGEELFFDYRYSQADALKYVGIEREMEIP", "assay": "co-IP"}
{"binder": "B1", "values": [{"measurement": "fold binding with PARPi against without PARPi", "result": "~4.4", "unit": "times"}]}
